The results in this text go back to PMC5526109.

The target in this experiment is MAdCAM-1 (mucosal addressin cell adhesion molecule-1) (UniProt Q13477). In words: cell adhesion assay.
Chain of UniProt Q13477 (Q13477 19-382): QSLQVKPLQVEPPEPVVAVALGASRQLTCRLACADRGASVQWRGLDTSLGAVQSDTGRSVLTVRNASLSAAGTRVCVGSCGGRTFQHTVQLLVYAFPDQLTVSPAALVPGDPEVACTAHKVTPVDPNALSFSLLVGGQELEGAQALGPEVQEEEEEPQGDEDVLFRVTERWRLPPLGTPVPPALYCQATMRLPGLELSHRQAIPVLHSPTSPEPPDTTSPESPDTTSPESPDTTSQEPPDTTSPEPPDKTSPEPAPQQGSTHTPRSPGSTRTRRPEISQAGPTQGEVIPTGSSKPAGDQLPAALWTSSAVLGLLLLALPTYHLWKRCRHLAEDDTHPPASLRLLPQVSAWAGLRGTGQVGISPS

As for “α4β7 integrin (from UniProt P13612 34-1032; P26010 20-798) (receptor)”, the relative light units of bound cells (~7.5 pmol MAdCAM-1 coated) was found to be 1e+06 RLU.
